# Results published in patent CN114349850A (JIANG QINGHUA; WANG PINGPING; STEP HIGH; ZHAO DONGMING, dated 2022).
# Assays:
# SARS-CoV-2 Spike RBD区域蛋白 = SARS-CoV-2 Spike RBD区域蛋白 (SARS-CoV-2, UniProt P0DTC2 319-541); assay: competitive ELISA, GD1-69 against ACE2 for SARS-CoV-2 S protein / RBD
# SARS-CoV-2 Spike蛋白 = SARS-CoV-2 Spike蛋白 (SARS-CoV-2, UniProt P0DTC2 16-1213); assay: cell-based or functional assay
binder,measurement,setting,value
"GD1-69 (antibody, human IgG1, kappa, V domains shown, also called 目标抗体; GD1-69抗体) VH: EVQLLESGGGLVQPGGSLRLSCAASGFTFSNYAMSWVRQAPGKGLEWVSVIYSGVSSTYYEDSVKGRFTISRDNSKNTLYLQMNSLRAEDTAVYYCAKDPSYDTRGYIFDYWGQGTLVTVSS VL: DIVMTQSPATLSVSPGERATLSCRASQSVSTNLAWYQQKPGQAPRLLIYGTSTRATGVPARFSGSGSGTEFTLTISSLQSEDFAIYYCLQYNNWRTFGQGTKLEIKR",IC50,SARS-CoV-2 Spike RBD区域蛋白,0.26 µg/mL
same,"噬斑减少中和测试 (活SARS-CoV-2病毒, Vero E6细胞) IC50",SARS-CoV-2 Spike蛋白,0.44 µg/mL
same,基于假病毒的中和试验 IC50,SARS-CoV-2 Spike蛋白,1.77 µg/mL
